Assay results: patent US20090297524A1 (DOMANTIS, published 2009)
Residue numbers refer to the chain shown, from its start.

B1: DOM.113 (other)
VH: EVQLLESGGGLVQPGGSLRLSCAASGFTFTEYPMSWVRQAPGKGLEWVSVISPLGFTTYYADSVKGRFTISRDNSKNTLYLQMNSLRAEDTAVYYCAKWTGGSGILNSSFDYWGQGTLVTVSS
notes: VH dAb
B2: DOM.100 (other)
VL: DIQMTQSPSSLSASVGDRVTITCRASQNIKHSLRWYQQKPGKAPRLLIYHRSQLQSGVPSRFSGSGSGTDFTLTISSLQPEDFATYYCQQVRHRPYTFGQGTKVEIKR
notes: Vk dAb
B3: DOM.102 (other)
VL: B2 VL with N28H, K30G, S32H, R45K, Q53H, F83S, V91W, R92D, H93R, R94P
notes: Vk dAb
B4: DOM.99 (other)
VH: EVQLLESGGGLVQPGGSLRLSCAASGFTFEDYAMSWVRQAPGKGLEWVSTITPGGFWTYYADSVKGRFTISRDNSKNTLYLQMNSLRAEDTAVYYCAKTSSGELQLVEDFDYWGQGTLVTVSS
notes: VH dAb
B5: DOM.114 (other)
VH: EVQLLESGGGLVQPGGSLRLSCAASGFRVSNYDLTWVRQAPGKGLEWVSTISATNGSTYYADSVKGRFTISRDNSKNTLYLQMNSLRAEDTAVYYCAAVTWWLLRHNDNLGFWGQGTLVTVSS
B6: DOM.180 (other)
VH: EVQLLESGGGLVQPGGSLRLSCAASGFTFTDYEMGWVRQAPGKGLEWVSTITSLGESTYYADSVKGRFTISRDNSKNTLYLQMNSLRAEDTAVYYCAKPGRIFDYWGQGTLVTVSS
notes: VH dAb
B7: DOM.208 (other)
VH: B6 VH with D31E, G35S, T50S, T52D, S53N, L54V, E56S, R101K, I102L
notes: VH dAb
B8: DOM.190 (other)
VH: EVQLLESGGGLVQPGGSLRLSCAASGFTFSMYDMHWVRQAPGKGLEWVSTILSDGTDTYYADSVKGRFTISRDNSKNTLYLQMNSLRAEDTAVYYCAKYGAMFDYWGQGTLVTVSS
notes: VH dAb
B9: DOM.205 (other)
VH: B6 VH with T30A, D31S, E33Q, G35A, T50G, L54G, E56L, I102G
notes: VH dAb
B10: DOM.184 (other)
VH: B6 VH with T30S, G35M, T50S, L54H, E56G, G100D, R101K, I102D
notes: VH dAb
B11: DOM.186 (other)
VH: EVQLLESGGGLVQPGGSLRLSCAASGLTFGRYEMAWVRQAPGKGLEWVSSIDSDGWVTYYADSVKGRFTISRDNSKNTLYLQMNSLRAEDTAVYYCAQPDSLFDYWGQGTLVTVSS
notes: VH dAb
B12: DOM.206 (other)
VH: B6 VH with T30A, D31S, G35T, T50G, T52S, L54D, E56L, R101V, I102L
notes: VH dAb
B13: DOM.196 (other)
VH: B6 VH with T30S, D31G, G35A, T50S, S53D, L54M, E56D, R101T, I102A, Q108P
notes: VH dAb
B14: DOM.112 (other)
VH: EVQLLESGGGLVQPGGSLRLSCAASGFTFMDYPMGWVRQAPGKGLEWVSSIGPVGMSTYYADSVKGRFTISRDNSKNTLYLQMNSLRAEDTAVYYCAKYGGTSGRHNTKFDYWGQGTLVTVSS
notes: VH dAb
B15: DOM8.111 (other)
VH: EVQLLESGGGLVQPGGSLRLSCAASGFTFERYPMTWVRQAPGKGLEWVSTIHGSGSATYYADSVKGRFTISRDNSKNTLYLQMNSLRAEDTAVYYCAKGPYTSRHNSLGHFDYWGQGTLVTVSS
notes: VH dAb

Target: T1, Recombinant human CD40L (human, UniProt P29965 108-261, limits assumed)
T1 construct: also called CD40 ligand
T1 sequence (looked up): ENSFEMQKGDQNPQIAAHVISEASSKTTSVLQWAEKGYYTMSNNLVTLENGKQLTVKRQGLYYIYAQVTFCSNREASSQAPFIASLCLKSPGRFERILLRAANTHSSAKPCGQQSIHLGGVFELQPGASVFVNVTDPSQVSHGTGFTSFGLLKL
Assay: CD40L/CD40-Fc receptor binding assay;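 further: plate assay with coated human CD40-Fc, bound ligand detected via HRP anti-biotin antibody and TMB, OD at 450 nm, lower signal indicates stronger inhibition by dAb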

Binding result, binds:
B1
B2
B3
B4
B5
B6
B7
B8
B9
B10
B11
B12
B13
B14
B15
